From publication PMC4169507
Residue numbers refer to the chain shown, from its start. In names and notes the source's numbering stands.

B1: AafA, major subunit of AAF/II, on wild type EAEC 042 Q43A (protein)
chain: VAKTATSTITVVNFCDITITPATNRDVNVDRSANIDLSFTIRAPQRCADAGMRIKAWGEANHGQLLIKPQGGNKSAGFTLASPRFSYIPNNPANIMNGFVLTNPGVYQLGMQGSITPAIPLRPGLYEVVLNAELVTN
B2: AafA, major subunit of AAF/II, on wild type EAEC 042 T18I (protein)
chain: B1 chain with T18I, A43Q

Target: fibronectin, P02751
Assay: bacterial adherence to fibronectin-coated 96-well plates (colony counting)
Settings: chain shown with the change; plates coated with 25 µg/ml of fibronectin; in the presence of arabinose; parent: 100; read off a plot

Chain of fibronectin, P02751 (P02751 32-2477): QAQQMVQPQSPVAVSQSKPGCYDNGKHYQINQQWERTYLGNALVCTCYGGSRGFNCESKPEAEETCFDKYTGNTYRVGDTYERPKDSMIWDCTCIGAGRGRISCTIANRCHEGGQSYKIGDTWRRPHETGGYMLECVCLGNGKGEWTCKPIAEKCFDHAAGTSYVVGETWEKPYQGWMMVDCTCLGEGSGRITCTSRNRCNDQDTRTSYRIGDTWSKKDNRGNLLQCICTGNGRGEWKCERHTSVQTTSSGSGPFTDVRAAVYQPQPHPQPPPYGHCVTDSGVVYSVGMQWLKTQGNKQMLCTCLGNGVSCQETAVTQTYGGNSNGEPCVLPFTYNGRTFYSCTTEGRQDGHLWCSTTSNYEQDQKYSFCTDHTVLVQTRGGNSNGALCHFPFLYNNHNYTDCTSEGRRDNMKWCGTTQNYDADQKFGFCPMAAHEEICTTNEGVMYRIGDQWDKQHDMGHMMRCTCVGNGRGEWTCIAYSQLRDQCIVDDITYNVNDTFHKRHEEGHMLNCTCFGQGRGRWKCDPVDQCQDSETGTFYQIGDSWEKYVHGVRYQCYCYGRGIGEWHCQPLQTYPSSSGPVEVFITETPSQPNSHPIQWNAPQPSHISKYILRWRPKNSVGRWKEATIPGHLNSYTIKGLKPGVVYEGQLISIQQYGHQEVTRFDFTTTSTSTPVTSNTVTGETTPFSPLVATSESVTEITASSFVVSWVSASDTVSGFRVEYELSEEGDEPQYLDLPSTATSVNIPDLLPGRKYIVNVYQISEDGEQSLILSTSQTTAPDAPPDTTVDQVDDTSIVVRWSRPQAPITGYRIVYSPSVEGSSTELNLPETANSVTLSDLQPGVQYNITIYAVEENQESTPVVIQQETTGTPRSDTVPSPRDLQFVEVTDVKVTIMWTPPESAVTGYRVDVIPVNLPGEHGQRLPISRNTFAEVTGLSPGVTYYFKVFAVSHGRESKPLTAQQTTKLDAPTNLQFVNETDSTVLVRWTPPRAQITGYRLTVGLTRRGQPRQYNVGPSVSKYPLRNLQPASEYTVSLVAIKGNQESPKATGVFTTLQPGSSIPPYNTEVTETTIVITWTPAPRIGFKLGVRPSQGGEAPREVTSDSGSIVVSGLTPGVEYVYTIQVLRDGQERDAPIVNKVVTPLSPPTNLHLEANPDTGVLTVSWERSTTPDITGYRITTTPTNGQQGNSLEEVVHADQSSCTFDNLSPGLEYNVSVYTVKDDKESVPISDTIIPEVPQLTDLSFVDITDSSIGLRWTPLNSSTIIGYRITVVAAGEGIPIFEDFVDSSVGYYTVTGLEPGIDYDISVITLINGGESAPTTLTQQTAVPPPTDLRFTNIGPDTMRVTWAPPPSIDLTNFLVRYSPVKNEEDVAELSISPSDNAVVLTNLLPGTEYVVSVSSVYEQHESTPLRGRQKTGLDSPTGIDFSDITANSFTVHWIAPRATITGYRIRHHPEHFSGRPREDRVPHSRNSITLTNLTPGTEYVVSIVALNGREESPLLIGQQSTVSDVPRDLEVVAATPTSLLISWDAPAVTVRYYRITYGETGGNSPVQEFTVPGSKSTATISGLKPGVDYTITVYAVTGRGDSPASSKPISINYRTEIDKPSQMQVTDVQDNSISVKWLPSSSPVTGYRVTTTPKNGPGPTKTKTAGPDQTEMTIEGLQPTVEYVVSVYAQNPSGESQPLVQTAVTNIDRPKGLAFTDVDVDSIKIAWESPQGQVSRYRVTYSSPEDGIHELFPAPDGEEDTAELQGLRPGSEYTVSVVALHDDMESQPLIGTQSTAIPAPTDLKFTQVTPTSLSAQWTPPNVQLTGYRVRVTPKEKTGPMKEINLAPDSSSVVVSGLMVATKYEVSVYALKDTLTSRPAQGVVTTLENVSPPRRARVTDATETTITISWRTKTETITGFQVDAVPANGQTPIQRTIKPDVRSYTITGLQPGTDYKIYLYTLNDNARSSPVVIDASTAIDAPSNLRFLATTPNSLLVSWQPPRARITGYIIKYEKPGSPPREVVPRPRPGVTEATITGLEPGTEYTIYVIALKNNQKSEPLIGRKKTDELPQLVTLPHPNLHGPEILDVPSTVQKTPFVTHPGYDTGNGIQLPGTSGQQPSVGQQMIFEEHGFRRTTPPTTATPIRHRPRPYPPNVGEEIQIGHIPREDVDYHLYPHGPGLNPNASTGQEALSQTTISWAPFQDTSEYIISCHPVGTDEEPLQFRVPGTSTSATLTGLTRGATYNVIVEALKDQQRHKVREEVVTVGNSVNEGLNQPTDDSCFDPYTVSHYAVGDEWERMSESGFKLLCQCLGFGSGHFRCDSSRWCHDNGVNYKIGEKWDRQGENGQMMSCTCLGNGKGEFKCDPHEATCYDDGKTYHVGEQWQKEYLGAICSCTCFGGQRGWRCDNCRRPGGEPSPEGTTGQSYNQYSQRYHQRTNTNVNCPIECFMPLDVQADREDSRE

Binder	percent of parent (% of binding to Fn)
B1	110
B2	65
